Positions count from the first letter of the chain named. Names and notes keep the numbering of the source. Read-outs that look alike come from different tables or passages of the source.
Experiments:
[1] = target: wild type CD70-His-Avi (human) (UniProt P32970); assay: SPR
[2] = target: wild type CD70-His-Avi (human) (UniProt P32970); assay: SPR; remark: listed apart in the source
[3] = target: wild type CD70-His-Avi (human) (UniProt P32970); assay: SPR; remark: listed apart in the source
[4] = target: the molecule itself; assay: SEC
[5] = target: human CD70 S137K, His-Avi tagged, purified (human) (UniProt P32970); assay: SPR
[6] = target: CD70-H148E (human) (UniProt P32970); assay: SPR
[7] = target: CD70-A80R (human) (UniProt P32970); assay: SPR
[8] = target: CD70-A80F (human) (UniProt P32970); assay: SPR
[9] = target: CD70-H148D (human) (UniProt P32970); assay: SPR
[10] = target: CD70-H148A (human) (UniProt P32970); assay: SPR
[11] = target: CD70-Q61A (human) (UniProt P32970); assay: SPR
[12] = target: CD70-S137A (human) (UniProt P32970); assay: SPR
[13] = target: CD70-S146A (human) (UniProt P32970); assay: SPR
[14] = target: CD70-S137E (human) (UniProt P32970); assay: SPR
[15] = target: CD70-S137K (human) (UniProt P32970); assay: SPR
[16] = target: T1, wild type CD70-His-Avi (human, UniProt P32970 45-193); assay: SPR
T1 sequence (looked up): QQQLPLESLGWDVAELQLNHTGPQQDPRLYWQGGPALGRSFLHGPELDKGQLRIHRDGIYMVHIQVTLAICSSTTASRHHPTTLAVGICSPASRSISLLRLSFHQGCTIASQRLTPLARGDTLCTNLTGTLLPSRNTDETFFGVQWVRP

With “human CD27 wild-type (glycosylated) (from UniProt P26842 23-127) (receptor)” the Kd [1] was 134 nM, the half-life (calculated from kd) [1] was 2.67 min and the Kd [2] was 121 nM. It also gave a Kd [3] of 135 nM.

In the case of “deglycosylated human CD27 (from UniProt P26842 23-127) (receptor)”, the Kd [1] is reported as 118 nM and the half-life (calculated from kd) [1] is reported as 1.9 min.

B1: glycosylated human CD70 (crystallisation construct) (ligand, UniProt P32970 45-193, looked up)
chain: T1 sequence (looked up)
modifications: N-linked glycans on N63 and N170; core fucosylation at N63
B1 was tested, and the “stoichiometry N” value [4] was 3.

B2: human CD27 wild type, glycosylated (residues A23-S127) (receptor)
chain: APKSCPERHYWAQGKLCCQMCEPGTFLVKDCDQHRKAAQCDPCIPGVSFSPDHHTRPHCESCRHCNSGLLVRNCTITANAECACRNGWQCRDKECTECDPLPNPS
modifications: N-linked glycan (glycosylated form)
With B2 the Kd [5] was 113 nM.

B3: human CD27 wild-type (glycosylated) (receptor)
chain: B2 chain
modifications: N-linked glycans kept (glycosylated; no Endo H digestion)
With B3 the Kd [6] was 380 nM, the Kd [7] was 163 nM and the Kd [8] was 643 nM. The Kd [9] was 477 nM, the Kd [10] was 236 nM and the Kd [11] was 205 nM. The Kd [12] was 156 nM, the Kd [13] was 116 nM and the Kd [14] was 526 nM. It also gave a Kd [15] of 135 nM.

B4: CD27-N95A (receptor, human, UniProt P26842 23-127, looked up)
chain: B2 chain with N73A
Molecule B4 has a Kd [16] of 100 nM, a koff [16] of 0.00726 s⁻¹ and a kon [16] of 72500 M⁻¹ s⁻¹.

B5: CD27-S83A (receptor, human, UniProt P26842 23-127, looked up)
chain: B2 chain with S61A
modifications: glycosylated
For B5, the Kd [16] was 254 nM, the koff [16] was 0.00854 s⁻¹ and the kon [16] was 33600 M⁻¹ s⁻¹.

B6: CD27-R30A (receptor, human, UniProt P26842 23-127, looked up)
chain: B2 chain with R8A
modifications: glycosylated
With B6 the Kd [16] was 351 nM, the koff [16] was 0.0047 s⁻¹ and the kon [16] was 13400 M⁻¹ s⁻¹.

B7: CD27-K115A (receptor, human, UniProt P26842 23-127, looked up)
chain: B2 chain with K93A
modifications: glycosylated
For B7, the Kd [16] was 102 nM, the koff [16] was 0.00351 s⁻¹ and the kon [16] was 34500 M⁻¹ s⁻¹.

From publication PMC8484739 (The Journal of Biological Chemistry, 2021)
